Values quoted from earlier work, collected in article PMC4150018.

Target: thrombin (Bos taurus) (UniProt P00735)
Chain of UniProt P00735 (P00735 318-366): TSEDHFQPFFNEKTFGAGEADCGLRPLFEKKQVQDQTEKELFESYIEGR

rhodniin (Kazal-type thrombin inhibitor) (from UniProt Q06684)
Ki: 0.2 pM
